# Earlier results, collected in publication PMC7226498.
# Biological target: p53 OD (Homo sapiens) (UniProt P04637)
# Sequence of p53 OD (P04637 325-356): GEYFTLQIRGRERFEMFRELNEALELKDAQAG
substance,measurement,value
p53 OD (from UniProt P04637),Kd,1 nM
